Key:
[1] = tested on: synthetic peptide, residues 210-236 of hK2 (peptide #1 of FIG. 16)
[2] = tested on: phK2^v217 (pro form of hK2 with valine at residue 217)
[3] = tested on: peptide #3 of FIG. 16, amino acid residues -7 to +7 of phK2

Chain of synthetic peptide, residues 210-236 of hK2 (peptide #1 of FIG. 16) (chain, as listed by the source): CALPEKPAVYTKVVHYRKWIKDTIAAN

Substance | peptide bond cleavage (RP-HPLC, N-terminal sequencing) [1] | conversion of pro to mature form (HIC-HPLC) [2] | conversion of pro to mature form (HIC-HPLC, N-terminal sequencing) [2] | peptide bond cleavage [3]
phK2^v217 (pro form of hK2 with valine at residue 217) | showed no amidolytic activity |  |  | 
hK2^v217 (mature hK2 polypeptide having an alanine to valine substitution at amino acid position 217) | trypsin-like cleavage at a 2:1 ratio over the chymotrypsin-like cleavage | no difference in the ratios of the two hK2 forms was detected even after 6 hours |  | 
trypsin |  |  | complete conversion of phK2^v217 to hK2^v217 | 
wild type mature hK2 (prostate-specific glandular kallikrein protein) | its activity was exclusive for the trypsin-like site (R-K) | at a rate about 30× slower than trypsin |  | hK2 was able to cleave this peptide releasing the propeptide region
prostate-specific antigen protein, hK3 (PSA) | PSA cleaved the Y-R bond primarily |  |  | 

Source: patent US20030113743
